Assay results taken from paper PMC3119699, “Characterizing the Role of Cell-Wall β-1,3-Exoglucanase Xog1p in Candida albicans Adhesion by the Human Antimicrobial Peptide LL-37” (PLoS ONE, 2011).
No end group written: not given here.

T1: Xog1p, cell-wall β-1,3-exoglucanase of C. albicans (endogenous) (C. albicans (endogenous in SC5314)) (UniProt P29717)
T1 sequence: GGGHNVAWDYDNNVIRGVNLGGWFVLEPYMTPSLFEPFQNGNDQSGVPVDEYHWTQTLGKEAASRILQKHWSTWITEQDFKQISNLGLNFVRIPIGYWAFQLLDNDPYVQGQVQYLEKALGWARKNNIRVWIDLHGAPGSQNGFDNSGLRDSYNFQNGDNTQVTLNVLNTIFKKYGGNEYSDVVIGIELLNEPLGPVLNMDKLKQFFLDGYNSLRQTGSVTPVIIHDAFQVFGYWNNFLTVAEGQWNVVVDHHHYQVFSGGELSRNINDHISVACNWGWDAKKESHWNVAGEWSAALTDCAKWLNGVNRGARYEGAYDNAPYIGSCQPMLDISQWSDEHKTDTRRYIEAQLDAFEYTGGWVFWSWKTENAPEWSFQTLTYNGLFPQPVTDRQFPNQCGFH

T2: Xog1_(90–115) (residues 90–115 from Xog1p) (C. albicans)
T2 construct: Residues 90–115 of C. albicans cell-wall β-1,3-exoglucanase Xog1p; also called Xog1p_(90–115); source: synthetic peptide (MDBio, Inc.)
T2 peptide: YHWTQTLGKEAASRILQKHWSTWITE

T3: soluble His-tagged recombinant Xog1p (rXog1p) (C. albicans, UniProt P29717 41-438)
T3 construct: An initiator Met comes from the NdeI site; No tag removal is described; also called full-length rXog1p; not shown: His tag (detected with anti-His6)
T3 sequence: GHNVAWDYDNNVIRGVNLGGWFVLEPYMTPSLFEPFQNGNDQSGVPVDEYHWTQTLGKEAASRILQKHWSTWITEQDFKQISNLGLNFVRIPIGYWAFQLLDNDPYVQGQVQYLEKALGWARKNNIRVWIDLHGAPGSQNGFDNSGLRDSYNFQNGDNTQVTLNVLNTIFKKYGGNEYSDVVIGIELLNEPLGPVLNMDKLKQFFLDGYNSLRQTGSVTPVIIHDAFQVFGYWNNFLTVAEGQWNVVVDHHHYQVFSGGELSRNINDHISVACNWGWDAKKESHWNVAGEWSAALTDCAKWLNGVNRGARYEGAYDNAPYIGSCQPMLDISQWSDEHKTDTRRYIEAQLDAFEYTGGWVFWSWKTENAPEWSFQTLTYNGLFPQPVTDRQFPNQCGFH


How the values were obtained:
[1] = target: T1, Xog1p, cell-wall β-1,3-exoglucanase of C. albicans (endogenous) (C. albicans (endogenous in SC5314))
[2] = target: T2, Xog1_(90–115) (residues 90–115 from …); assay: ELISA; Xog1_(90–115) (5 µg) coated on wells; BA-LL37 0.01–5 µg/ml in 0.1% TBST, room temperature 1 h; SA-HRP, A450; conditions: both partners purified
[3] = target: T3, soluble His-tagged recombinant Xog1p …; assay: pull-down; streptavidin-agarose, BA-LL37 (bait) and purified rXog1p in TBS, room temperature 2 h; six washes with TBS; Tricine SDS-PAGE, Coomassie Blue; conditions: both partners purified

Binder | inhibition of C. albicans adhesion to polystyrene (XTT reduction) at 5 µg/ml (∼1.1 µM) LL-37 [1] [%] | binding result [2] | binding result [3]
LLGDFFRKSKEKIGKEFKRIVQRIKDFLRNLVPRTES [LL-37 (human cathelicidin antimicrobial peptide)] | 70 |  | 
LLGDFFRKSKEKIGKEFKRIVQRIKDFLRNLVPRTES (also: biotinylated (site not given here), LL-37, the mature 37-residue C-terminal peptide cut from human cathelicidin by proteinase-3; biotinylated; Detected or captured by its biotin (SA-HRP, SA-DTAF, streptavidin-agarose); source: synthetic peptide (MDBio, Inc.), 95% pure) [biotinylated LL-37 (BA-LL37)] |  | binds | binds
